Laboratory results published in the DeepSol protein solubility set.

Experiment: soluble on expression in E. coli; label from the status in PepcDB or PDB records

For “MAHHHHHHMMSPFPPLPVYLSGLLTLHVPTRCLHFLVLTPMKTRVGLHRCCASYLRLLSQDRLQLHNPIEFIGALHFFTSLCSPLGVADFLRMEDPAAQEVVVTPWTVEGDVNYDKLIKNFGCQAIDDKLLERMERLTGKKPHHFLRRGIFFSHRDLNLILDAYEKGQPFYLYTGRGPSSESMHVGHLIPFMFTKWLQDTFHVPLVIQLTDDEKFFFKDLTMEEIDKMTTENLKDIIAFGFDPKLTFIFRDFEYVGQMYRIVARIEKAYTASQVRGCFGFKMEDNCGRWMFPAIQAAPSFSAAFPHIFPLQKGNVFCMIPQAIDQDPYFRLTRDVAPRMGYLKPAVIHSKFFPGLSGSKGKMSSSTGAAVFLTDTPKMIKDKINKHAFSGGGADKKEQLLLGGNTNVDVPVQWLRFFLEDDEELKRLQKDYMLGRIMTGDVKKVLIRQITSIVTAHQESRKKVTEADVELFTAVRVMGPAKEEAESRK”, which “soluble on expression in E. coli” value is on record?
The value was “not soluble”.

Which “soluble on expression in E. coli” value does the source give for “MAHHHHHHMNESVEQLFDELISDFNKNDKIGEGNESFNIREKVGNKWTNEDILNNINKNDFSKYTEYSLSSLYITDERIHIDEDNKFQDFLNVITKASDVNNIYKWIDSYYKYDSKEELDILSPKAQKKEYIFREYLEPFHLKGLCLLRKYEKGAILKSSEKSKVDVNIVSEYIVHNTYKQIMKSFGYYLSHKIYIKAHIFHNKYGNSDHIIVLILQHFKDENFKQPLFHDRALVQIKSYSNDNKYSELTQKNLLHYAEIFKPFVSLRKLNYNFVEEFKDKIMFGI” here?
The value was “soluble”.

For “MAHHHHHHMNKNYPGRITSAPLAQQARGLSLRPGAPASFLDRAQPGGAGTGIGAQQSHHNNNLPRAPRAKPPTQLQTPAPAPPLPKEEAEEERSGAAEVAPSEVSYPEDHIYDVEDFIKLRKCQAPVPSEVMEYARAMWKEMPENMDDMENNSLRDNLFREQNASTMSKVMTDRKINNEVLGILGKVTASNLEKMKKELTDLPIRQSTKEEIDEV”, which “soluble on expression in E. coli” value is on record?
The value was “soluble”.

For “MAHHHHHHMNKTNEVDDWTEWLDDDDEKREDEFHIDSTKDEAIKKKILQNNLDDIADFLDIGDNKKKKVEETENKVKPKVTEKIITLESTPLNSIKDCETLGEILAGRIRKCKAKSVALERFISIIITASESKLEDKDLLTVSRKLQEMVSQREKKKRYAQINKKKPNEVKNSIKNYEDEVDMIYGDLSYDEDDYEEEVVDEYLENF”, which “soluble on expression in E. coli” value is on record?
The value was “soluble”.

With “MAHHHHHHMNLIVHDLDFMKRILLNDERKWGEESAPGEGRTESSHQPKIITIVLNNTLCAHSAKFIANSDVLICADGGANRLYNLCQSLATERGAIDDEGSSLKGEEDKNTALHASHTNERSHHVSGRHTISDLFNMPVEKKEKALKRPTEIVPHIICGDFDSINAHVYSYYKNKSVIFEKCANQENTDLDKCIDVIRGYIRTNDKILILGATGNRFDHTCANISCLYKNASLNSLYLIGENNFLFLLQQGSHIIHVSPDVFCKGCGILPFGGKCTIKTEGLKYNLNDECLSFDTLISSSNEVVQREVKIFNDSPVVWSAQLI” as the sequence, how does the “soluble on expression in E. coli” value read?
The value was “not soluble”.

For “MAHHHHHHMNSKDTNELKRGAGYLKEKAIIGLTRVTGNELDRAIYKVTSHKLKAPKEKHMQRVLAATRGYSSQKTHKGRNTCEYIVSEFEKRLHTHNWIVVLKTLVTFHRLMKDGSDEVNNCIQQNRNIFCFRNIKDLSESSEGAVQSVFIRQYMYYLEERSSSQRKLGASKRMENSEFGVFLRSLDVDTLGPVFESLLVQLSALVEVQYKEAIVDNFCTMEAFQRLVNDGKLLYQILSDRAIFILDGFSGFTLQQKKDWVRRYREYTVVGERLRLLFESIANSKRMFDEPPPPLKALPGSLLESLEREVRLSSIAHEDITETLESLGITADEKTPLKATTSDGTMAIYSPVATEKALDTTETGAPPVTEPKKESGFSIDDLFVPPPVTDSHQQTSYNPSTIPQGTQMEGPLIQTEANPNMTYTFPTGVPVGQNFFGQQPTGNSLTWEAPSPAPGSMQPQSAAGIVPSWSDSSASWGRGNCGSNTVDPFKDLYASQKGGQ”, which “soluble on expression in E. coli” value is on record?
Its value is “soluble”.

Which “soluble on expression in E. coli” value does the source give for “MAHHHHHHMNWCLSRRWRFRLELLSASLLSRVHIGCHAEPRNNMSTTPAKNELASVHESIQITLSKIQEDSAKRSSQEQQLISSVASAKCLAGIFSAHSPTNDEVVRALKSAGEEEQVEAECLQRYQQFVEAKKRCFTSVEADLRSVSKVLSGVLAASEKVEEPTSGDCRAEVQENQCDGELLHLLRLWRTVVCLHDLVLGSLIKRGSDGSPCELQRFSAGEERSYVRESALRNTVADTEKMLLAIRKRWRDLTEEAEAVRATAESMTPLPFSDEATLLIADEKDEPLVASINQGLHELQQSSDRLRKKKVAVDEGAAALLEKVRNLSLQTAACRCSVEAFSQRSREAADDANSLMSAKARALQELHRKAQECASEQGLLDRDVGSYKQLCALLVEWAENEKSEAERIVAAEQEYHSLVSKERAQQEKLRCLRLSIKNLESEVRDASTEKQRIVGEVQYLSKLVSNPTVVTQVLARASEECHPEREVTALHNYLRFVQKARLERHTSHE” here?
The value was “not soluble”.
